Test results taken from PMC7782499, “Progerinin, an optimized progerin-lamin A binding inhibitor, ameliorates premature senescence phenotypes of Hutchinson-Gilford progeria syndrome” (Communications Biology, 2021).
Values joined by “and” are separate entries in the source; they are usually repeats but may differ in a detail not shown here. Identical values can stand only once.

Columns and labels:
[1] = Plasma protein binding, human; assay type: in vitro ADME
Procedure: (§1) At pre-set time-points, blood concentration of JH4 was determined by LC-MS/MS analysis[22],[23]. Other chemicals were also tested using similar protocol. In vitro ADME studies (plasma protein binding, CYP inhibition, microsomal stability, plasma stability, and hERG inhibition) were performed by New Drug Development Center (Daegu, Korea) using standard protocols[24],[25].

[2] = Plasma protein binding, rat; assay type: in vitro ADME
Procedure: as §1

[3] = test system: HEK293 cells; test: Nuclear deformation in GFP-positive HEK293 cells transfected with lamin A / progerin vectors; assay type: cell-based; settings: for % of deformed nuclei in GFP positive cells, Ave: average (Fig S1E); for % of deformed nuclei in GFP positive cells: single replicates (Fig S1E)
Source text: (§2) GFP tag conjugated EV (GFP-EV), lamin A (GFP-LA), lamin A-C661A (GFP-LA-C661A), progerin (GFP-PG), and progerin-C611A (GFP-PG-C611A) vectors were used. GFP-PG and GFP-LA expression vectors were kindly provided by Misteli T. (National Cancer Institute [NCI], Frederick, MD, USA). GFP-LA-C661A and GFP-PG-C611A expression vectors were created by a single point mutation in CaaX motif. The CSIM sequence of lamin A, or progerin was mutated to ASIM. jetPEI (Polyplus Transfection, NY, USA) was used for transfection of expression vectors. Vectors were mixed with 1.5 μl of jetPEI in 150 mM NaCl solution. The mixture was added to HEK293 cells. After 4 h of incubation, medium was replaced with a new medium supplemented with 10% FBS.
For nuclear deformation cell counting, immunofluorescence staining was performed with lamin A or progerin antibodies. After staining, abnormal nuclear membrane was counted in randomly selected fields and expressed as percentages or actual numbers of total cells counted. Abnormalities of nuclear membrane were determined based on the following: (1) lamin A/C or progerin lining was extruded or engulfed, (2) having at least one bleb, and (3) irregular contour. Counting of cells with nuclear deformation was performed by three independent observers who were blinded to chemical treatment group. To analyze histone H3K9me3 intensity or expression, images were quantified using “color histogram” function of Image J software (National Institute of Health, NIH). Fluorescence intensities were subtracted by background signals.
(§3) Fig. S1. Generation of point mutation in CaaX motif of lamin A and progerin for blocking farnesylation.
(§4) A. Sequence of expression vector encoding LA-C661A was created by single point mutation in CaaX motif.
WT-LA with CSIM sequence was mutated to ASIM. B. Sequence of expression vector encoding progerin-
C611A with a single point mutation in CaaX motif. Progerin with CSIM sequence was mutated to ASIM. […]
D. Measurement of proteins (GFP-LA, GFP-LA-C661A, GFP- […]
Quantification of western blot by Ima ge J
software (National Institute of Health, NIH). E. Quantification of nuclear deformation in GFP positive
HEK293 cells. At least 100 cells/sample/experiment were counted by two independent researchers. The
statistical significance was analyzed by Student’s t -test. **p < 0.001, *p < 0.05, N.S: not significant. F. […]

[4] = test system: HEK293 cells; test: GFP-tagged protein and H3K9me3 expression in transfected HEK293 cells; assay type: cell-based; settings: for GFP relative expression (ratio), Ave: average (Fig S1F); for Relative H3K9me3 expression, Ave: average (Fig S1G); for GFP relative expression (ratio): single replicates (Fig S1F); for Relative H3K9me3 expression: single replicates (Fig S1G); for GFP positive cells in total cells, Ave / GFP positive cells in total cells: transfected cells; for GFP positive cells in total cells, Ave / GFP relative expression in Western Blot, Ave: average (Fig S1D); for GFP positive cells in total cells / GFP relative expression in Western Blot: single replicates (Fig S1D);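 on Relative H3K9me3 expression, Ave: Western blot band quantification of H3K9me3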;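 on Relative H3K9me3 expression: Western blot band quantification of H3K9me3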
Source text: as §2
Protein was extracted from cells using a radioimmunoprecipitation assay (RIPA) buffer (50 mM Tris-Cl, pH 7.5, 150 mM NaCl, 1% NP-40, 0.1% SDS, and 10% sodium deoxycholate). Samples were separated by sodium dodecyl sulfate-polyacrylamide gel electrophoresis (SDS-PAGE) and transferred to polyvinylidene difluoride (PVDF) membranes. Blotted membranes were blocked with 3% skimmed milk in TBS-T buffer (20 mM Tris pH 7.6, 150 mM NaCl, and 0.05% Tween 20) for 1 h followed by incubation with specific primary antibodies. Horseradish peroxidase (HRP)-conjugated goat anti-mouse, goat anti-rabbit, and mouse anti-goat IgG antibodies (Pierce, Thermo Fisher Scientific, Inc., Rockford, IL, USA) were used as secondary antibodies. Peroxidase activity was detected by chemiluminescence using an ECL kit (Intron, Seoul, Korea) following the manufacturer’s instructions. Bands were quantified using Image J software (National Institute of Health, NIH).
as §3, §4
WT-LA with CSIM sequence was mutated to ASIM. B. Sequence of expression vector encoding progerin-C611A with a single point mutation in CaaX motif. Progerin with CSIM sequence was mutated to ASIM.
C. Transient transfection of HEK293 cells with LA-C661A or PG-C611A seems to be indistinguishable from that of authentic WT-LA, or progerin. D. Measurement of proteins (GFP-LA, GFP-LA-C661A, GFP-PG, and GFP-PG-C611A) expression by counting of GFP-positive cells and western blot analysis. The blue […]
fluorescence images were randomly selected and the number of GFP expressing cells were calculated. The […]
experiment; two-tailed Student’s t-test), N.S: not significant. Quantification of western blot by Ima ge J software (National Institute of Health, NIH). […]
Quantification of GFP -tagged expression vector encoding e mpty (EV), wild-type lamin A (WT-LA), lamin A-C661A (LA-C661A), progerin, or progerin- C611A. Blots of GFP expression were quantified using Image J software. (n = 3 independent experiment; two- tailed Student’s t -test), N.S: not significant. G.
Quantification of H3K9me3 expression. […]

Plasma protein binding [1]	fraction unbound ([1]; human, plasma)	fraction unbound [2]	Molecule	% of deformed nuclei in GFP positive cells, Ave [3]	% of deformed nuclei in GFP positive cells [3]	GFP relative expression (ratio), Ave [4]	Relative H3K9me3 expression, Ave [4]	GFP relative expression (ratio) [4]	Relative H3K9me3 expression [4]	GFP positive cells in total cells, Ave [4]	GFP positive cells in total cells [4]	GFP relative expression in Western Blot, Ave [4]	GFP relative expression in Western Blot [4]
62.1 % Bound	0.345	0.156	C[C@@H]1C[C@H]2[C@@H]3CCC4=CC(=O)C=C[C@]4(C)[C@@]3(F)[C@@H](O)C[C@]2(C)[C@@]1(O)C(=O)CO [Dexamethasone]										
			WT-LA (protein, left off: GFP, end not stated, state not stated) METPSQRRATRSGAQASSTPLSPTRITRLQEKEDLQELNDRLAVYIDRVRSLETENAGLRLRITESEEVVSREVSGIKAAYEAELGDARKTLDSVAKERARLQLELSKVREEFKELKARNTKKEGDLIAAQARLKDLEALLNSKEAALSTALSEKRTLEGELHDLRGQVAKLEAALGEAKKQLQDEMLRRVDAENRLQTMKEELDFQKNIYSEELRETKRRHETRLVEIDNGKQREFESRLADALQELRAQHEDQVEQYKKELEKTYSAKLDNARQSAERNSNLVGAAHEELQQSRIRIDSLSAQLSQLQKQLAAKEAKLRDLEDSLARERDTSRRLLAEKEREMAEMRARMQQQLDEYQELLDIKLALDMEIHAYRKLLEGEEERLRLSPSPTSQRSRGRASSHSSQTQGGGSVTKKRKLESTESRSSFSQHARTSGRVAVEEVDEEGKFVRLRNKSNEDQSMGNWQIKRQNGDDPLLTYRFPPKFTLKAGQVVTIWAAGAGATHSPPTDLVWKAQNTWGCGNSLRTALINSTGEEVAMRKLVRSVTVVEDDEDEDGDDLLHHHHGSHCSSSGDPAEYNLRSRTVLCGTCGQPADKASASGSGAQVGGPISSGSSASSVTVTRSYRSVGGSGGGSFGDNLVTRSY	7%	6% and 8% and 4% and 9% and 12%								
			PG-C611A (protein, left off: GFP, end not stated, kept) METPSQRRATRSGAQASSTPLSPTRITRLQEKEDLQELNDRLAVYIDRVRSLETENAGLRLRITESEEVVSREVSGIKAAYEAELGDARKTLDSVAKERARLQLELSKVREEFKELKARNTKKEGDLIAAQARLKDLEALLNSKEAALSTALSEKRTLEGELHDLRGQVAKLEAALGEAKKQLQDEMLRRVDAENRLQTMKEELDFQKNIYSEELRETKRRHETRLVEIDNGKQREFESRLADALQELRAQHEDQVEQYKKELEKTYSAKLDNARQSAERNSNLVGAAHEELQQSRIRIDSLSAQLSQLQKQLAAKEAKLRDLEDSLARERDTSRRLLAEKEREMAEMRARMQQQLDEYQELLDIKLALDMEIHAYRKLLEGEEERLRLSPSPTSQRSRGRASSHSSQTQGGGSVTKKRKLESTESRSSFSQHARTSGRVAVEEVDEEGKFVRLRNKSNEDQSMGNWQIKRQNGDDPLLTYRFPPKFTLKAGQVVTIWAAGAGATHSPPTDLVWKAQNTWGCGNSLRTALINSTGEEVAMRKLVRSVTVVEDDEDEDGDDLLHHHHGSHCSSSGDPAEYNLRSRTVLCGTCGQPADKASASGSGAQSPQNASIM	97.7143%	95% and 100% and 96% and 98%	0.82	2.153	0.9957 and 0.6855 and 0.7789	2.22 and 2.38 and 1.86	0.7166	0.624 (2×) and 0.546 and 0.585 and 0.819 and 0.897 and 0.78 and 0.858		
			LA (protein, UniProt P02545 1-661, looked up) Prelamin-A/C: METPSQRRATRSGAQASSTPLSPTRITRLQEKEDLQELNDRLAVYIDRVRSLETENAGLRLRITESEEVVSREVSGIKAAYEAELGDARKTLDSVAKERARLQLELSKVREEFKELKARNTKKEGDLIAAQARLKDLEALLNSKEAALSTALSEKRTLEGELHDLRGQVAKLEAALGEAKKQLQDEMLRRVDAENRLQTMKEELDFQKNIYSEELRETKRRHETRLVEIDNGKQREFESRLADALQELRAQHEDQVEQYKKELEKTYSAKLDNARQSAERNSNLVGAAHEELQQSRIRIDSLSAQLSQLQKQLAAKEAKLRDLEDSLARERDTSRRLLAEKEREMAEMRARMQQQLDEYQELLDIKLALDMEIHAYRKLLEGEEERLRLSPSPTSQRSRGRASSHSSQTQGGGSVTKKRKLESTESRSSFSQHARTSGRVAVEEVDEEGKFVRLRNKSNEDQSMGNWQIKRQNGDDPLLTYRFPPKFTLKAGQVVTIWAAGAGATHSPPTDLVWKAQNTWGCGNSLRTALINSTGEEVAMRKLVRSVTVVEDDEDEDGDDLLHHHHGSHCSSSGDPAEYNLRSRTVLCGTCGQPADKASASGSGAQVGGPISSGSSASSVTVTRSYRSVGGSGGGSFGDNLVTRSYLLGNSSPRTQSPQNC			0.7757	4.873	0.8616 and 0.6545 and 0.811	5.1 and 4.62 and 4.9	0.7312	0.897 and 0.585 and 0.741 (2×) and 0.546 and 0.819 (2×) and 0.702	1.171	1.2 and 1.286 and 1.029
			LA-C661A (protein, UniProt P02545 1-661, looked up, variant C661A) Prelamin-A/C: METPSQRRATRSGAQASSTPLSPTRITRLQEKEDLQELNDRLAVYIDRVRSLETENAGLRLRITESEEVVSREVSGIKAAYEAELGDARKTLDSVAKERARLQLELSKVREEFKELKARNTKKEGDLIAAQARLKDLEALLNSKEAALSTALSEKRTLEGELHDLRGQVAKLEAALGEAKKQLQDEMLRRVDAENRLQTMKEELDFQKNIYSEELRETKRRHETRLVEIDNGKQREFESRLADALQELRAQHEDQVEQYKKELEKTYSAKLDNARQSAERNSNLVGAAHEELQQSRIRIDSLSAQLSQLQKQLAAKEAKLRDLEDSLARERDTSRRLLAEKEREMAEMRARMQQQLDEYQELLDIKLALDMEIHAYRKLLEGEEERLRLSPSPTSQRSRGRASSHSSQTQGGGSVTKKRKLESTESRSSFSQHARTSGRVAVEEVDEEGKFVRLRNKSNEDQSMGNWQIKRQNGDDPLLTYRFPPKFTLKAGQVVTIWAAGAGATHSPPTDLVWKAQNTWGCGNSLRTALINSTGEEVAMRKLVRSVTVVEDDEDEDGDDLLHHHHGSHCSSSGDPAEYNLRSRTVLCGTCGQPADKASASGSGAQVGGPISSGSSASSVTVTRSYRSVGGSGGGSFGDNLVTRSYLLGNSSPRTQSPQNA	7.286%	8% and 6% and 10% and 5% and 9%	0.7753	4.563	0.9644 and 0.614 and 0.7475	5.03 and 4.5 and 4.16	0.7264	0.819 and 0.936 and 0.741 (2×) and 0.546 and 0.585 and 0.78 and 0.663	1.219	1.3 and 1.171 and 1.186
